Reference: the supplement of paper PMC9170038

Tested on: MS2 coat protein
Experiment: apparent KD of MS2 coat protein; higher = weaker reporter binding
Settings: Eterna round: R107
Procedure: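 RNA-MaP round R107: designed RNA switches with theophylline, tryptophan, arginine or FMN aptamers are transcribed on-chip within common flanks. They are titrated with SNAP-549-labelled MS2 coat protein in RNA-MaP buffer (100 mM Tris pH 7.5, 80 mM KCl, 4 mM MgCl2), without ligand or with the indicated ligand. Median apparent KD per design.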

[1] = input ligand: theophylline 20 uM
[2] = input ligand: theophylline 2 mM
[3] = input ligand: tryptophan 2.4 mM

| Sequence | apparent KD of MS2 coat protein (input ligand: arginine 13.2 mM) | apparent KD of MS2 coat protein (input ligand: none) | apparent KD of MS2 coat protein [1] | apparent KD of MS2 coat protein [2] | apparent KD of MS2 coat protein [3] |
| --- | --- | --- | --- | --- | --- |
| UACAUGAGGAUCACCCAUGUGUAGAGGGAUACCAGUGACAGUAAGCACCCUUGGCAGCCCGUGAACAAAGGGUGGGCAAAAUAGU [#16 Exclusion-TheophyllineA] | 48.2 nM | 39.2 nM | 60.3 nM | 47.4 nM | 33.9 nM |
| CAAUAUAUAUGAAGGAGCGUCGAAAAUGGGUAAACAUGAGGAUCACCCAUGUAAAGGGAACGACAGGUAGGUCGCAUAUGUAUUG [AstromonsSSArgB#9] | 171 nM | 165 nM | 195 nM | 261 nM | 190 nM |
| GGGUACAUCGCGGCCGCCACUCAUGUAAAUACAUGAGGAUCACCCAUGUCGAUGGAGACAUCGGAGAGGACCGGGCGAUGUACCG | 224 nM | 398 nM | 352 nM | 540 nM | 264 nM |
| UCAAUACAGUCGGCCGCCACUGUAACCAAACCUACAUACCAACAUGAGGAUCACCCAUGUUUAUACAGGACCGGGACCUCUAUGA [theeternabot_sameState_MS2_Trp_B_10] | 32.6 nM |  | 45.8 nM | 46.4 nM |  |
| CAACUGCUUGAGCUUACUUAUUGGACUUCCCGAGGACCGGUACGGCCGCCACUCGCAGGGACACAUGAGGAUCACCCAUGUAAAG [theeternabot_exclusion_MS2_Trp_A_42] | 17.3 nM |  | 21.1 nM | 19.6 nM |  |
| UUCAGCUAGUCGGCCGCCACUACAUGAGGAUCACCCAUGUAAUCCUAACACUGCUUCGGCAGUGGUAGGACCGGGACUAGCUGAG | 11.1 nM |  | 14.3 nM | 12.2 nM |  |
| CGCCACUCGAGUGAUCCUCACGAGUGGCUACGAGGACCGGUACGGCCGCCACUCGAAUUAACAUGAGGAUCACCCAUGUAAUCCA [Brourdmod09] | 21.1 nM |  | 217 nM | 400 nM |  |
| GUAACACAUGAGGAUCACCCAUGUUCCGAUACCAGUAUUGAAGAUUACCCUUGGCAGCGGGUAGGUCGGAGUGGACGGCCCGAGC [theeternabot_sameState_MS2_Theo_A_8] | 17.9 nM |  | 25 nM |  | 23.7 nM |
| GAUCGAUCAUAGUACGAUCGUUUUGUGGAAGGAGCGCAGAGGACUGCAGGUAGGUCGCCACAUGAGGAUCACCCAUGUCAGGAUU [XARG-A 24] | 99.9 nM | 61.5 nM | 62.5 nM | 122 nM | 32.8 nM |
| AGAGCAUUGACGGCCGCCACUUAUGUCACAUGAGGAUCACCCAUGUGAUGGGUGAUAGCCCGGUUGAGGACCGGGUCAAUGCUCA [Omei Tryp SS B v6] | 14.8 nM |  | 18.5 nM | 15.2 nM |  |
| UUAGAUAUGACGGAUACCAGCGUGUUGUAGAACAUGAGGAUCACCCAUGUAGUGAUCGUGCGCCCUUGGCAGCUGGUAUGUUUGG [7.V] | 133 nM |  | 491 nM |  | 501 nM |
| ACACAUGAGGAUCACCCAUGUGCGCUGGAAGGAGCGCAGAAUCAUGCAGGUAGGUCGCCAGUGCCCAUUACUAGAGGGAUAAGAG [Onriri] | 44.5 nM | 75.8 nM | 101 nM | 102 nM | 64.6 nM |
| GAGCUGAUGUAGGCCGGAUAUCCGGGAGAUACCAGUACAGAAAUGUACCCUUGGCAGCUCUUUCCUACAUGAGGAUCACCCAUGU [Ex Theophylline A 28] | 17 nM |  | 21.7 nM |  | 17.8 nM |
| AUAAAUAAUAAAUAAGAUAAAAUGGGUGAACGAGGACCGGUACGGCCGCCACUCGGACAUGAGGAUCACCCAUGUCCAUGUGAAA [#22 Exclusion Tryptophan A] | 14 nM |  | 19.8 nM | 20.2 nM |  |
| AACAUGAGGAUCACCCAUGUCCCAUGUGAACGAGGACCGGUACGGCCGCCACUCGACCGAGGCGGCACAUGAGGAUCACCCGCAU [whbob_SS_trypto A_2s14] | 161 nM |  | 481 nM | 682 nM |  |
| UGGGUCGGAUGAGUAAAUUGUCGGACUCAUCGAGGACCGGUACGGCCGCCACUCGGUUGUACAUGAGGAUCACCCAUGUCAGGGU [#1 Same State - Tryptophan A Attempt #17 (HarryS)] | 47.4 nM |  | 336 nM | 749 nM |  |
| GAUGAUAUUGCAGAUACCAGACACAUGAGGAUCACCCAUGUCGUUGGGUAGCUGGGUCGUGUCCCUUGGCAGCUGCGAUAUCAUC [#05 Exclusion-TheophyllineB] | 19.8 nM |  | 48.2 nM |  | 24.5 nM |
| GCUAGGUCAUCGGCCGCCACUAUUAGUGGUUCGAACAUGAGGAUCACCCAUGUGCCACAUGCGCAUAGGACCGGGAUGACCUAGC [SSTB NP+V+V2 #8] | 11.8 nM |  | 18.2 nM | 13.7 nM |  |
| ACAUGAAGAUUAAUCGUGGGCAUACUCGAUACCAGUAUUUUAACCUACCCUUGGCAGCGACAUGAGGAUCACCCAUGUGAGAUGA [XTheo A #8] | 19.9 nM |  | 23.5 nM |  | 22.8 nM |
| GGACUAACCAGAAGGAGCGACACGCAGAAACUGCAAAUUCCUCUGCACGAGGAUCACCCGUGUCAGGUAGGUCGCUGGUUAGUCG | 29.9 nM | 27.4 nM | 35.5 nM | 36.6 nM | 26.9 nM |
| GGCGUCGGGCGAAGGAGCGUGAAGACAUGAGGAUCACCCAUGUAGAGGCCCGAACAGGGUUCGCAGGUAGGUCGCGCGCGGUGCC [#1 Same State - Arginine B Attempt #6 (HarryS)] | 11.5 nM | 13.6 nM | 24.7 nM | 21.4 nM | 15.6 nM |
| CGUGGUGGGACGGAUACCAGCCACCGCGGCAACGCAACAUGAGGAUCACCCAUGUUGGGUGGCCCUUGGCAGCUGUCCUGCGGCG [#1 Same State - Theophylline B Attempt #26 (HarryS)] | 9.91 nM |  | 15 nM |  | 11.4 nM |
| GAUUACAUGAGGAUCACCCAUGUAACUGAAGGAGCGGUAAUAAAGCCAGGUAGGUCGCAGAACGACAUGUGGUUCAUCCAUGUAA [#15 Exclusion - Arginine A] | 14.3 nM | 39.1 nM | 46.9 nM | 35.5 nM | 30.4 nM |
| AGUCUUAAAGGAAGGAGCGCAGUCAUAACAUGAGGAUCACCCAUGUCGAUGUGAGGGUCAUUGCAGGUAGGUCGCCUUACUAAGA [Same State - Arginine B (Freestyle 5)] | 22.8 nM | 40.4 nM | 46 nM | 30.2 nM | 40.6 nM |
| AAAACAAACUCGGCCGCCACUCCCUCCCACCCAAGGACAUGAGGAUCACCCAUGUGGCAAAGCCCGAGGACCGGGAGAAACAAAA [Same State - Trytophan B] | 18.1 nM | 22.2 nM | 28.3 nM | 26.4 nM | 20.3 nM |
| CUGCCAUGCAGGGAUACCAGUGCGUUCAGAACAUGAGGAUCACCCAUGUCGUCUGCCGAUCACCCUUGGCAGCUCUGCAUGGCAG [#05 Same State - Theophylline B] | 9.22 nM | 9.69 nM | 9.45 nM | 9.73 nM | 9.91 nM |
